Tested on: O=P(O)(O)OP(=O)(O)O
Assay: purified protein
Settings: pH 9.0 (100 mM Tris-HCl; optimum pH), 5 mM MgSO4, 37 °C, 0.1 µM enzyme
Text: malachite green phosphate release, Michaelis-Menten fit on rEhHAPp49

For “rEhHAPp49 (Entamoeba histolytica HM-1:IMSS)”, the Km was 12 ± 2 µM, the kcat was 0.177 ± 0.00333 s⁻¹ and the kcat/Km was 14700 M⁻¹ s⁻¹.

— publication PMC7926622, “Structure–Function Relationship Study of a Secretory Amoebic Phosphatase: A Computational-Experimental Approach” (International Journal of Molecular Sciences, 2021)
